This is an account of results in patent US20180155451A1 (published 2018).

For assay [1], the target named is T1, FcgRIIa R (human, UniProt P12318 34-217).
T1 construct: extracellular domain; also called FcγRIIa R; FcγRIIa type R; not shown: His tag attached to the C terminus
T1 sequence (looked up): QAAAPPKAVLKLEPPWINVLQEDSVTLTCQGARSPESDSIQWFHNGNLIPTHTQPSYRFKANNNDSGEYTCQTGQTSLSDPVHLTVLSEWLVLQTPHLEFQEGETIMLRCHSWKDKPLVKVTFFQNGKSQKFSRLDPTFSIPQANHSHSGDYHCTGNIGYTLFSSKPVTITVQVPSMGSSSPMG
The experiment in a line: SPR (Biacore), antibody captured on chip, FcgR extracellular domain as analyte. Here is the method:
(§1) Analysis of interaction between obj ective antibody and the FcγR was carried out using Biacore T100 (GE Healthcare), Biacore T200, Biacore A100, and Biacore 4000. HBS-EP+ (GE Healthcare) was used as the running buffer, and the measurement temperature was set to 25° C. Chips produced by immobilizing the antigen peptide by the amine coupling method to a Series S sensor Chip CM5 (GE Healthcare), chips produced by allowing preliminarily biotinylated antigen peptides to interact with and immobilize onto a Series S Sensor Chip SA (certified) (GE Healthcare), chips produced by immobilizing Protein L (ACTIGEN, BioVision) to Series S Sencor Chip CM5 (GE Healthcare), or chips produced by immobilizing Protein A/G (Thermo Scientific) to Series S Sencor Chip CM5 (GE Healthcare) were used. Antibodies of interest were captured onto these chips, and allowed to interact to each FcγR diluted with running buffer. To regenerate and repeatedly use the chip, the antibodies captured onto the chip were washed off by reacting 10 mM glycine-HCl, pH 1.5.

For assay [2], the target named is T2, FcgRIIa H (human, UniProt P12318 34-217).
T2 construct: extracellular domain; also called FcγRIIa H; FcγRIIa type H; not shown: His tag attached to the C terminus
T2 sequence (looked up): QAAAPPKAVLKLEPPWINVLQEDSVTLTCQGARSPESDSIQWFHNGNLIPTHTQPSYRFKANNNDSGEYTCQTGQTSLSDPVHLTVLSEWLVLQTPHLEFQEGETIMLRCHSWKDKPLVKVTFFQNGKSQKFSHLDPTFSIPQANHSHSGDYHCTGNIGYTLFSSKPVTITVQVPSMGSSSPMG
Described as above. Here is the method:
as §1

Assay [3] deals with T3, FcgRIIIa F (human, UniProt P08637 17-208).
T3 construct: extracellular domain; also called FcγRIIIa F; not shown: His tag attached to the C terminus
T3 sequence (P08637 17-208): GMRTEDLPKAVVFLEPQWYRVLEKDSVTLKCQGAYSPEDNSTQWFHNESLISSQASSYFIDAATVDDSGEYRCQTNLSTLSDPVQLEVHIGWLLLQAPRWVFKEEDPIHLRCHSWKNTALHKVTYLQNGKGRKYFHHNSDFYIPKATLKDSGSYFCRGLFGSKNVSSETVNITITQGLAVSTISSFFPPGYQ
The description is as above. Here is the method:
as §1

In assay [4] the target is T4, FcgRIIIa V (human, UniProt P08637 17-208).
T4 construct: extracellular domain; also called FcγRIIIa V; not shown: His tag attached to the C terminus
T4 sequence (P08637 17-208 F176V limits assumed): as the sequence (P08637 17-208) above, with F160V counted along it
The assay is described as above. As to the method:
as §1

The target of another assay is T5, FcgRIa (human, UniProt P12314 16-292).
T5 construct: extracellular domain; Expressed in FreeStyle293 cells and purified; used as analyte in Biacore; also called FcγRIa; FcγRI; not shown: His tag attached to the C terminus
T5 sequence (P12314 16-292): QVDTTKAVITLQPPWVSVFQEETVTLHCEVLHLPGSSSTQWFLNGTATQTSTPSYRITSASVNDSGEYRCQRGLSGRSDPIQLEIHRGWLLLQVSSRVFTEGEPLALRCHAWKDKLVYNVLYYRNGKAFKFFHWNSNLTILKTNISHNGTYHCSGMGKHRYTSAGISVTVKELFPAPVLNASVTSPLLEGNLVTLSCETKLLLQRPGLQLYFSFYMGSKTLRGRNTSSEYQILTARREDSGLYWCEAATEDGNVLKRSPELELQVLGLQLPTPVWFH
The description is as above. Here is the method: (§2) Specifically, H240-Kn120 (SEQ ID NO: 99) resulting from introduction of S239M into H240-Kn067 and H240-Kn126 (SEQ ID NO: 100) resulting from introduction of Y235Q into H240-Kn120 were prepared according to the method described in Reference Example 1. […] Those described above were assayed for the binding to each FcgR according to the method described in Reference Example 8.
as §1

In assay [5] the target is T1, FcgRIIa R. The description is as above. As to the method:
as §2, §1
This is another data set of the same source.

Assay [6] concerns the target T2, FcgRIIa H. The assay is described as above. As to the method:
as §2, §1
This is another data set of the same source.

Another assay has as its target T6, FcgRIIb (human, UniProt P31994 43-217).
T6 construct: extracellular domain; Expressed in FreeStyle293 cells and purified; used as analyte in Biacore; also called FcγRIIb; CD32B; not shown: His tag attached to the C terminus
T6 sequence (looked up): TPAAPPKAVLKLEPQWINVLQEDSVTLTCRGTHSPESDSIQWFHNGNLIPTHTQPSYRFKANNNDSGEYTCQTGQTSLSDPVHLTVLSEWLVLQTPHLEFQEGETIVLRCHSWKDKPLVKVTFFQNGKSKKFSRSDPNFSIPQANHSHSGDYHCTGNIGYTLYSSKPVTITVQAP
The assay is described as above. As to the method: as §2, §1

Assay [7] concerns the target T3, FcgRIIIa F. The assay is described as above. As to the method: as §2, §1
This is another data set of the same source.

The target of assay [8] is T4, FcgRIIIa V. The description is as above. As to the method: as §2, §1
This is another data set of the same source.

Assay [9] has as its target T7, FcγRIIIa extracellular domain with C-terminal His tag (human, UniProt P08637 17-208).
T7 construct: extracellular domain; also called FcgRIIIa; 3a; not shown: His tag at the C terminus
The experiment in a line: SPR relative binding; GpH7-A5/GpH7-B3/GpL16-k0 = 100. The source says:
First, variants of interest were expressed and prepared according to the method described in Reference Example 1, using GpH7-A5 as an H chain; and GpL16-k0 as the L chain; and as the other H chain, GpH7-HA5 (SEQ ID NO: 19), GpH7-HA6 (SEQ ID NO: 20), and GpH7-HA11 (SEQ ID NO: 21) resulting from the introduction of L234Y, G236W, and S298A, respectively, into GpH7-B12 introduced with the alteration P329R. Furthermore, antibodies of interest were expressed and prepared according to the method described in Reference Example 1, using as an H chain, GpH7-A48 (SEQ ID NO: 16) resulting from the introduction of P329R into GpH7-A5; and GpL16-k0 as the L chain; and as the other H chain, GpH7-B3-01-15Y (SEQ ID NO: 22), GpH7-B3-03-20W (SEQ ID NO: 23), and GpH7-B3-15-02A (SEQ ID NO: 24) resulting from the introduction of L234Y, G236W, and S298A, respectively, into GpH7-B3. The antibodies thus obtained were named GpH7-A5/GpH7-HA5/GpL16-k0 (SEQ ID NOs: 3, 19, and 5, respectively), GpH7-A5/GpH7-HA6/GpL16-k0 (SEQ ID NOs: 3, 20, and 5, respectively), GpH7-A5/GpH7-HA11/GpL16-k0 (SEQ ID NOs: 3, 21, and 5, respectively), GpH7-A48/GpH7-B3-01-15Y/GpL16-k0 (SEQ ID NOs: 16, 22, and 5, respectively), GpH7-A48/GpH7-B3-03-20W/GpL16-k0 (SEQ ID NOs: 16, 23, and 5, respectively), and GpH7-A48/GpH7-B3-15-02A/GpL16-k0 (SEQ ID NO: 16, 24, and 5, respectively). The variants were compared to each other for the FcγRIIIa-binding activity according to the method described in Reference Example 2.
Analysis of interaction between objective antibody and the FcγR was carried out using Biacore T100 (GE Healthcare). HBS-EP+ (GE Healthcare) was used as the running buffer, and the measurement temperature was set to 25° C. Chips produced by immobilizing the antigen peptide by the amine coupling method to a Series S Sencor Chip CM5 (GE Healthcare), or alternatively, chips produced by allowing preliminarily biotinylated antigen peptides to interact with and immobilize onto a Series S Sensor Chip SA (certified) (GE Healthcare) were used. Antibodies of interest were captured onto an antigen peptide-immobilized chip, and allowed to interact to each FcγR diluted with running buffer. To regenerate and repeatedly use the chip, the antibodies captured on the chip were washed off by reacting 10 mM glycine-HCl, pH 1.5.

Where two headings read alike, the source gives them in different places.

T7 sequence (P08637 17-208): as the sequence (P08637 17-208) above

B1: H240-Kn067/H240-Hl068/L73-k0 (antibody, human IgG1, kappa)
heavy 1: QDQLVQSGAEVKKPGASVKVSCKASGFNIKDTYIQWVRQAPGQGLEWMGRIDPLRKQTKYREKFEGRVTITADTSTNTAYMELSSLRSEDTAVYYCVRSGREFDYWGQGTLVTVSSASTKGPSVFPLAPSSKSTSGGTAALGCLVKDYFPEPVTVSWNSGALTSGVHTFPAVLQSSGLYSLSSVVTVPSSSLGTQTYICNVNHKPSNTKVDKKVEPKSCDKTHTCPPCPAPEYYWGPSVFLFPPKPKDTLMISRTPEVTCVVVDVSDEDPEVKFNWYVDGVEVHNAKTKPREEQYNATYRVVSVLTVLHQDWLNGKEYKCKVSNKDLPAPIEKTISKAKGQPREPQVCTLPPSRDELTKNQVSLWCLVKGFYPSDIAVEWESNGQPENNYKTTPPVLDSDGSFFLYSKLTVDKSRWQQGNVFSCSVMHEALHNHYTQKSLSLSP
heavy 2: QDQLVQSGAEVKKPGASVKVSCKASGFNIKDTYIQWVRQAPGQGLEWMGRIDPLRKQTKYREKFEGRVTITADTSTNTAYMELSSLRSEDTAVYYCVRSGREFDYWGQGTLVTVSSASTKGPSVFPLAPSSKSTSGGTAALGCLVKDYFPEPVTVSWNSGALTSGVHTFPAVLQSSGLYSLSSVVTVPSSSLGTQTYICNVNHKPSNTKVDKKVEPKSCDKTHTCPPCPAPELLGGPSVFLFPPKPKDTLMISRTPEVTCVVVDVSHEEPEVKFNWYVDGVEVHNAKTKPREEQYNSTYRVVSVLTVLHQDWLNGKEYKCKVSNDALPKPIEETISKAKGQPREPQVYTLPPSRCELTKNQVSLSCAVKGFYPSDIAVEWESNGQPENNYKTTPPVLDSDGSFFLVSKLTVDKSRWQQGNVFSCSVMHEALHNHYTQKSLSLSP
light: DIQMTQSPSSLSASVGDRVTITCRASQDIHKYIAWYQQKPGQAPRLLIQYTSTLQPGVPSRFSGSGSGTDYTFTISSLQPEDIATYYCLQYEQLRTFGGGTKVEIKRTVAAPSVFIFPPSDEQLKSGTASVVCLLNNFYPREAKVQWKVDNALQSGNSQESVTEQDSKDSTYSLSSTLTLSKADYEKHKVYACEVTHQGLSSPVTKSFNRGEC
notes: Heterodimerized anti-EREG IgG1: L234Y/L235Y/G236W/H268D/S298A/A327D in Kn067, D270E/K326D/A330K/K334E in Hl068; also called H240-Kn067/H240-HI068/L73-k0
For the molecule B1, the Kd – broadly, the constant that tells how readily two partners part at equilibrium – with FcgRIIa R [1] came out at 49 nM; with FcgRIIa H [2], 94 nM; with FcgRIIIa F [3] it was 7.1 nM; with FcgRIIIa V [4], 1.6 nM; in the assay with FcgRIa, 0.26 nM; with FcgRIIa R [5], 49 nM. The Kd was 94 nM with FcgRIIa H [6], 370 nM in the assay with FcgRIIb, 7.1 nM with FcgRIIIa F [7] and 1.6 nM in the assay with FcgRIIIa V [8].

B2: GpH7-A5/GpH7-HA5/GpL16-k0 (antibody, human IgG1, kappa)
heavy 1: not shown
heavy 2: QVQLVQSGAEVKKPGASVTVSCKASGYTFTDYEMHWIRQPPGEGLEWIGAIDPKTGDTAYSESFQDRVTLTADKSTSTAYMELSSLTSEDTAVYYCTRFYSYTYWGQGTLVTVSSASTKGPSVFPLAPSSKSTSGGTAALGCLVKDYFPEPVTVSWNSGALTSGVHTFPAVLQSSGLYSLSSVVTVPSSSLGTQTYICNVNHKPSNTKVDKKVEPKSCDKTHTCPPCPAPEYLGGPSVFLFPPKPKDTLMISRTPEVTCVVVDVSHEDPEVKFNWYVDGVEVHNAKTKPREEQYNSTYRVVSVLTVLHQDWLNGKEYKCKVSNKALRAPIEKTISKAKGQPREPQVYTLPPSRDELTKNQVSLTCLVKGFYPSDIAVEWESNGQPENNYKTTPPVLDSDGSFFLYSKLTVDKSRWQQGNVFSCSVMHEALHNHYTQESLSLSP
light: DIVMTQSPLSLPVTPGEPASISCQASESLVHSNRNTYLHWYLQKPGQSPQLLIYKVSNRFSGVPDRFSGSGSGTDFTLKISRVEAEDVGVYYCSQNTHVPPTFGQGTKVEIERTVAAPSVFIFPPSDEQLKSGTASVVCLLNNFYPREAKVQWKVDNALQSGNSQESVTEQDSKDSTYSLSSTLTLSKADYEKHKVYACEVTHQGLSSPVTKSFNRGEC
notes: H2 L234Y and P329R
Turning to B2, in assay [9], the “FcγRIIIa BINDING ACTIVITY” value is 60 % of control.

B3: GpH7-A5/GpH7-HA6/GpL16-k0 (antibody, human IgG1, kappa)
heavy 1: not shown
heavy 2: QVQLVQSGAEVKKPGASVTVSCKASGYTFTDYEMHWIRQPPGEGLEWIGAIDPKTGDTAYSESFQDRVTLTADKSTSTAYMELSSLTSEDTAVYYCTRFYSYTYWGQGTLVTVSSASTKGPSVFPLAPSSKSTSGGTAALGCLVKDYFPEPVTVSWNSGALTSGVHTFPAVLQSSGLYSLSSVVTVPSSSLGTQTYICNVNHKPSNTKVDKKVEPKSCDKTHTCPPCPAPELLWGPSVFLFPPKPKDTLMISRTPEVTCVVVDVSHEDPEVKFNWYVDGVEVHNAKTKPREEQYNSTYRVVSVLTVLHQDWLNGKEYKCKVSNKALRAPIEKTISKAKGQPREPQVYTLPPSRDELTKNQVSLTCLVKGFYPSDIAVEWESNGQPENNYKTTPPVLDSDGSFFLYSKLTVDKSRWQQGNVFSCSVMHEALHNHYTQESLSLSP
light: DIVMTQSPLSLPVTPGEPASISCQASESLVHSNRNTYLHWYLQKPGQSPQLLIYKVSNRFSGVPDRFSGSGSGTDFTLKISRVEAEDVGVYYCSQNTHVPPTFGQGTKVEIERTVAAPSVFIFPPSDEQLKSGTASVVCLLNNFYPREAKVQWKVDNALQSGNSQESVTEQDSKDSTYSLSSTLTLSKADYEKHKVYACEVTHQGLSSPVTKSFNRGEC
notes: H2 G236W and P329R
With B3, the “FcγRIIIa BINDING ACTIVITY” value in assay [9] was 56 % of control.
